Molecular target: wild-type human Elp123 sub-complex (hElp123WT) (human) (UniProt O95163)
Assay: SEC; gel filtration of purified hElp123 on Superose 6 Increase 10/300 GL; 20 mM HEPES, 150 mM NaCl, 5 mM DTT, pH 8.0; Elp1-Elp2-Elp3 trimer to dimer of trimers

Substance “wild-type human Elp123 sub-complex (hElp123WT), O95163 1-1332; Q6IA86 1-826; Q9H9T3 1-547” has a stoichiometry N of 2.

Source: publication PMC8113450
